Data published in the Immune Epitope Database (IEDB).
Blank lines part the entries; values can stand above or below the sequence they belong to.

How the values were obtained:
HLA-A*02:01 [1] = assay: IEDB peptide-MHC binding, purified MHC/competitive/fluorescence; filed as Kd, often an IC50 or EC50 that approximates it; ≥ and ≤ were set here for values at or beyond the usual limits of such assays; conditions: source organism: Vibrio cholerae 2740-80
HLA-A*02:03 = assay: as above; conditions: source organism: Vibrio cholerae 2740-80
HLA-A*02:12 = assay: as above; conditions: source organism: Vibrio cholerae 2740-80
HLA-A*02:16 = assay: as above; conditions: source organism: Vibrio cholerae 2740-80
HLA-A*02:19 = assay: as above; conditions: source organism: Vibrio cholerae 2740-80
HLA-A*03:01 [2] = assay: as above; conditions: source organism: Vibrio cholerae 2740-80
HLA-A*24:03 = assay: as above; conditions: source organism: Vibrio cholerae 2740-80
HLA-A*25:01 [3] = assay: as above; conditions: source organism: Vibrio cholerae 2740-80
HLA-A*26:01 = assay: as above; conditions: source organism: Vibrio cholerae 2740-80
HLA-B*27:03 = assay: as above; conditions: source organism: Vibrio cholerae 2740-80
HLA-B*46:01 = assay: as above; conditions: source organism: Vibrio cholerae 2740-80
HLA-B*51:01 [4] = assay: as above; conditions: source organism: Vibrio cholerae 2740-80
HLA-B*57:01 [5] = assay: as above; conditions: source organism: Vibrio cholerae 2740-80
HLA-C*05:01 = assay: IEDB peptide-MHC binding, purified MHC/direct/fluorescence; filed as Kd, often an IC50 or EC50 that approximates it; ≥ and ≤ were set here for values at or beyond the usual limits of such assays; conditions: source organism: Giardia lamblia ATCC 50803
HLA-C*06:02 = assay: as above; conditions: source organism: Giardia lamblia ATCC 50803
HLA-A*68:23 = assay: IEDB peptide-MHC binding, purified MHC/competitive/fluorescence; filed as Kd, often an IC50 or EC50 that approximates it; ≥ and ≤ were set here for values at or beyond the usual limits of such assays; conditions: source organism: Giardia lamblia ATCC 50803
HLA-B*15:42 = assay: as above; conditions: source organism: Giardia lamblia ATCC 50803
HLA-B*45:06 = assay: as above; conditions: source organism: Giardia lamblia ATCC 50803
HLA-B*73:01 = assay: as above; conditions: source organism: Giardia lamblia ATCC 50803
HLA-B*83:01 = assay: as above; conditions: source organism: Giardia lamblia ATCC 50803
HLA-C*04:01 [6] = assay: as above; conditions: source organism: Giardia lamblia ATCC 50803
HLA-C*14:02 = assay: as above; conditions: source organism: Giardia lamblia ATCC 50803
HLA-B*15:17 = assay: IEDB peptide-MHC binding, purified MHC/direct/fluorescence; filed as Kd, often an IC50 or EC50 that approximates it; ≥ and ≤ were set here for values at or beyond the usual limits of such assays; conditions: source organism: Escherichia coli O157:H7
HLA-B*57:01 [7] = assay: as above; conditions: source organism: Escherichia coli O157:H7
HLA-B*58:01 [8] = assay: as above; conditions: source organism: Escherichia coli O157:H7
HLA-C*04:01 [9] = assay: as above; conditions: source organism: Escherichia coli O139:H28 str. E24377A
HLA-A*01:01 = assay: IEDB peptide-MHC binding, purified MHC/competitive/fluorescence; ≥ and ≤ were set here for values at or beyond the usual limits of such assays
HLA-A*02:01 [10] = assay: as above
HLA-A*03:01 [11] = assay: as above
HLA-A*11:01 = assay: as above
HLA-A*24:02 [12] = assay: as above
HLA-A*25:01 [13] = assay: as above
HLA-A*29:02 = assay: as above
HLA-A*31:01 = assay: as above
HLA-A*68:02 = assay: as above
HLA-B*07:02 = assay: as above
HLA-B*08:01 = assay: as above
HLA-B*14:02 = assay: as above
HLA-B*18:01 = assay: as above
HLA-B*35:01 = assay: as above
HLA-B*37:01 = assay: as above
HLA-B*40:02 = assay: as above
HLA-B*44:03 = assay: as above
HLA-B*51:01 [14] = assay: as above
HLA-B*53:01 = assay: as above
HLA-B*58:01 [15] = assay: as above
HLA-B*40:01 = assay: IEDB peptide-MHC binding, purified MHC/competitive/radioactivity; ≥ and ≤ were set here for values at or beyond the usual limits of such assays; conditions: source organism: Human papillomavirus 16
HLA-A*24:02 [16] = assay: as above; conditions: source organism: Homo sapiens
[17] = source organism: Ateles geoffroyi

Sequence: HSYLWDHQM
- Kd (HLA-A*02:01 [1]): ≥ 20 µM
- Kd (HLA-A*02:03): ≥ 20 µM
- Kd (HLA-A*02:12): ≥ 20 µM
- Kd (HLA-A*02:16): ≥ 20 µM
- Kd (HLA-A*02:19): ≥ 20 µM
- Kd (HLA-A*03:01 [2]): ≥ 20 µM
- Kd (HLA-A*24:03): ≥ 20 µM
- Kd (HLA-A*25:01 [3]): ≥ 20 µM
- Kd (HLA-A*26:01): ≥ 20 µM
- Kd (HLA-B*27:03): ≥ 20 µM
- Kd (HLA-B*46:01): ≥ 20 µM
- Kd (HLA-B*51:01 [4]): ≥ 20 µM
- Kd (HLA-B*57:01 [5]): 0.0547 µM

Sequence: YPFHIFYPV
- Kd (HLA-C*05:01): ≥ 20 µM
- Kd (HLA-C*06:02): ≥ 20 µM
- Kd (HLA-A*68:23): 0.0431 µM
- Kd (HLA-B*15:42): ≥ 5 µM
- Kd (HLA-B*45:06): 4.7 µM
- Kd (HLA-B*73:01): 1.33 µM
- Kd (HLA-B*83:01): 0.137 µM
- Kd (HLA-C*04:01 [6]): ≥ 5 µM
- Kd (HLA-C*14:02): 0.189 µM

Sequence: YMWECPDFF
- Kd (HLA-B*15:17): 0.157 µM
- Kd (HLA-B*57:01 [7]): 1.44 µM
- Kd (HLA-B*58:01 [8]): ≥ 5 µM
- Kd (HLA-C*04:01 [9]): 0.137 µM

- IC50 (HLA-A*01:01; source organism: Homo sapiens): ≥ 20 µM
- IC50 (HLA-A*02:01 [10]; source organism: Homo sapiens): 0.0939 µM
- IC50 (HLA-A*03:01 [11]; source organism: Homo sapiens): ≥ 20 µM
- IC50 (HLA-A*11:01; source organism: Homo sapiens): ≥ 20 µM
- IC50 (HLA-A*24:02 [12]; source organism: Homo sapiens): ≥ 20 µM
- IC50 (HLA-A*25:01 [13]; source organism: Homo sapiens): ≥ 20 µM
- IC50 (HLA-A*29:02; source organism: Homo sapiens): 13.2 µM
- IC50 (HLA-A*31:01; source organism: Homo sapiens): ≥ 20 µM
- IC50 (HLA-A*68:02; source organism: Homo sapiens): ≥ 20 µM
- IC50 (HLA-B*07:02; source organism: Homo sapiens): ≥ 20 µM
- IC50 (HLA-B*08:01; source organism: Homo sapiens): ≥ 20 µM
- IC50 (HLA-B*14:02; source organism: Homo sapiens): ≥ 20 µM
- IC50 (HLA-B*18:01; source organism: Homo sapiens): ≥ 20 µM
- IC50 (HLA-B*35:01; source organism: Homo sapiens): ≥ 20 µM
- IC50 (HLA-B*37:01; source organism: Homo sapiens): ≥ 20 µM
- IC50 (HLA-B*40:02; source organism: Homo sapiens): 0.995 µM
- IC50 (HLA-B*44:03; source organism: Homo sapiens): ≥ 20 µM
- IC50 (HLA-B*51:01 [14]; source organism: Homo sapiens): ≥ 20 µM
- IC50 (HLA-B*53:01; source organism: Homo sapiens): ≥ 20 µM
- IC50 (HLA-B*58:01 [15]; source organism: Homo sapiens): ≥ 20 µM
Sequence: ILNRETLLDFV

Sequence: SEYRHYCYSL
- IC50 (HLA-B*40:01): 0.00054 µM

- IC50 (HLA-A*01:01; [17]): ≥ 20 µM
- IC50 (HLA-A*02:01 [10]; [17]): ≥ 20 µM
- IC50 (HLA-A*03:01 [11]; [17]): ≥ 20 µM
- IC50 (HLA-A*11:01; [17]): ≥ 20 µM
- IC50 (HLA-A*24:02 [12]; [17]): ≥ 20 µM
- IC50 (HLA-A*25:01 [13]; [17]): ≥ 20 µM
- IC50 (HLA-A*29:02; [17]): 1.09 µM
- IC50 (HLA-A*31:01; [17]): ≥ 20 µM
- IC50 (HLA-A*68:02; [17]): 0.818 µM
- IC50 (HLA-B*07:02; [17]): 0.134 µM
- IC50 (HLA-B*08:01; [17]): ≥ 20 µM
- IC50 (HLA-B*14:02; [17]): 14.5 µM
- IC50 (HLA-B*18:01; [17]): ≥ 20 µM
- IC50 (HLA-B*35:01; [17]): 0.006 µM
- IC50 (HLA-B*37:01; [17]): ≥ 20 µM
- IC50 (HLA-B*40:02; [17]): 3.3 µM
- IC50 (HLA-B*44:03; [17]): ≥ 20 µM
- IC50 (HLA-B*51:01 [14]; [17]): 1.62 µM
- IC50 (HLA-B*53:01; [17]): 1.61 µM
- IC50 (HLA-B*58:01 [15]; [17]): ≥ 20 µM
Sequence: LPADPASVL

- IC50 (HLA-A*24:02 [16]): 0.197 µM
Sequence: TYSVSFDSL
